Measured values: PMC10065082 (The Journal of Clinical Investigation, 2023)

Experiments:
Settings in all cases: both partners purified
WT calmodulin [1] = molecular target: T1, WT calmodulin (UniProt P0DP23 1-149); test: ITC; Microcal VP-ITC, 25°C, 10 mM Mops, 2 mM EGTA, 1 mM TCEP, 150 mM KCl, pH 7, 0 Ca2+; NaV1.5CTD (55-75 uM) or NaV1.6CTD (73-110 uM) peptide and WT CaM or D96V-CaM (5-15 uM); fitted to a model of 1 binding site per monomer
T1 construct: calmodulin, recombinant; Legends say the recombinant CaMs were not FLAG tagged in the patch-clamp experiments; nothing is said of tags for ITC; also called WT CaM; WT-CaM

WT calmodulin [2] = molecular target: T1, WT calmodulin; test: ITC; Microcal VP-ITC, 25°C, 10 mM Mops, 2 mM EGTA, 1 mM TCEP, 150 mM KCl, 1.93 mM CaCl2, pH 7, 10 uM free Ca2+; NaV1.6CTD (73-110 uM) peptide and WT-CaM (12 uM) or D96V-CaM (16 uM); fitted to a one-binding site per monomer model
wild-type calmodulin [3] = molecular target: T2, wild-type calmodulin (UniProt P0DP23 1-149); test: ITC; in the presence of 10 uM free Ca2+; NaV1.6CTD peptide and WT CaM or D96V-CaM
T2 construct: Calmodulin (CaM), recombinant; GenBank M19381.1 (mouse CaM I) is printed only for the transgene of the mice, not for the recombinant protein; also called WT CaM; CaM

wild-type calmodulin [4] = molecular target: T2, wild-type calmodulin; test: ITC; 0 Ca2+; Microcal VP-ITC, 25°C, 10 mM Mops, 2 mM EGTA, 1 mM TCEP, 150 mM KCl, pH 7; NaV1.5CTD (55-75 uM) or NaV1.6CTD (73-110 uM) peptides and WT CaM or D96V-CaM (5-15 uM); 28 injections; fitted to a model of 1 binding site per monomer

B1: hNaV1.6CTD peptide (residues 1891-1918 of human NaV1.6) (peptide)
peptide: RRKQEEVSAVVLQRAYRGHLARRGFICK
notes: human NaV1.6 carboxy terminal domain stretch with the IQ motif, residues 1891-1918; source: synthetic peptide (LifeTein), at least 90% purity by HPLC
WT calmodulin [1]
  stoichiometry N: 1
WT calmodulin [2]
  stoichiometry N: 1

B2: hNaV1.6CTD peptide (residues 1891-1918 of human NaV1.6) (peptide)
peptide: RRKQEEVSAVVLQRAYRGHLARRGFICK
notes: Carboxy terminal domain peptide with the IQ motif of human NaV1.6, residues 1891-1918; source: synthetic peptide (LifeTein), at least 90% purity by HPLC
wild-type calmodulin [3]
  Kd: 132 nM
wild-type calmodulin [4]
  Kd: 243 nM
